Reference: paper PMC7801515

Tests used:
Experiment in all cases: flow cytometry on cells
[1] = target: SARS-CoV-2 S glycoprotein R457A, full-length, cell surface-expressed (SARS-CoV-2) (UniProt P0DTC2)
[2] = target: SARS-CoV-2 S glycoprotein T415A, full-length, cell surface-expressed (SARS-CoV-2) (UniProt P0DTC2)
[3] = target: SARS-CoV-2 S glycoprotein Y421A, full-length, cell surface-expressed (SARS-CoV-2) (UniProt P0DTC2)
[4] = target: SARS-CoV-2 S glycoprotein Y473A, full-length, cell surface-expressed (SARS-CoV-2) (UniProt P0DTC2)

Measured: percent reduction in binding (MFI relative to wild type)

P2C-1F11 monoclonal antibody
> 50%: all assays above
